Experimental data: patent US20240360201A1 (BIOCYTOGEN PHARMACEUTICALS BEIJING, published 2024)
Like-named read-outs stand apart in the source and are kept apart here.

Tests used:
Assay in all cases: SPR Biacore T200; binder captured on protein A chip, target as analyte
human CTLA4 (hCTLA4-His) = human CTLA4 (hCTLA4-His) (human, UniProt P16410 36-161, limits assumed)
Procedure: (§1) Binding affinities of the fusion proteins against human CTLA4 (hCTLA4-His) or human PD-L1 (hPDL1) were measured by surface plasmon resonance (SPR) using Biacore™ T200 biosensor equipped with pre-immobilized protein A sensor chips. A CTLA4 antibody CT4-4G12-IgG1 (CT4) was used as a control. ATOR1015-CD86 (CD86) and KN035-IgG1 (with D265A mutation in heavy chain constant domain) were also used as controls.

[1] = biological target: T1, 6×Histidine-tagged human PD-L1 protein (hPDL1-His) (human, UniProt Q9NZQ7 19-238)
T1 construct: also called hPL1-His; His-tagged human PD-L1
T1 sequence (Q9NZQ7 19-238 limits assumed): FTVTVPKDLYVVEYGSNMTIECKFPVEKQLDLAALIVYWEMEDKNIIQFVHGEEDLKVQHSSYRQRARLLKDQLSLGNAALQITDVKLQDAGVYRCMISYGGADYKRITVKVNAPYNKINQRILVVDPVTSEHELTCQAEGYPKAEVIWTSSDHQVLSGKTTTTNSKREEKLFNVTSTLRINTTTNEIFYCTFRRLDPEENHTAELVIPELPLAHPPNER
Procedure: as §1

[2] = biological target: T1, 6×Histidine-tagged human PD-L1 protein …; remark: listed apart in the source

Chain of human CTLA4 (hCTLA4-His) (P16410 36-161 limits assumed): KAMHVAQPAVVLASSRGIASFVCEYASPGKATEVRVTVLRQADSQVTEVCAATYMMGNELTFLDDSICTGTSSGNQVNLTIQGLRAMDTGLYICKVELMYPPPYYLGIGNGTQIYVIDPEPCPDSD

Binder | Kd (human CTLA4 (hCTLA4-His)) | koff (human CTLA4 (hCTLA4-His)) | kon (human CTLA4 (hCTLA4-His)) | Kd [1] | koff [1] | kon [1] | further results
ATOR1015-CD86 (ligand, Used as control captured on a protein A chip) APLKIQAYFNETADLPCQFANSQNLSLSELVVFWQDQENLVLNEVYLGKERFDSVDSKYMGRTSFDSDSWTLRLHNLQIKDKGRYQCIIHHKKPTGMINIHQMNSELSVLA | 1.02 nM | 0.000297 s⁻¹ | 291000 M⁻¹ s⁻¹ |  |  |  | 
PDL1-CD86-3A-IgG1 (antibody, IgG1) heavy: EVQLLESGGGLVQPGGSLRLSCAASGFTFSSYIMMWVRQAPGKGLEWVSSIYPSGGITFYADTVKGRFTISRDNSKNTLYLQMNSLRAEDTAVYYCARIKLGTVTTVDYWGQGTLVTVSSASTKGPSVFPLAPSSKSTSGGTAALGCLVKDYFPEPVTVSWNSGALTSGVHTFPAVLQSSGLYSLSSVVTVPSSSLGTQTYICNVNHKPSNTKVDKKVEPKSCDKTHTCPPCPAPELLGGPSVFLFPPKPKDTLMISRTPEVTCVVVDVSHEDPEVKFNWYVDGVEVHNAKTKPREEQYNSTYRVVSVLTVLHQDWLNGKEYKCKVSNKALPAPIEKTISKAKGQPREPQVYTLPPSRDEGGGGSGGGGSAPLKIQAYFNETADLPCQFANSQNLSLSELVVFWQDQENLVLNEVYLGKERFDSVDSKYMGRTSFDSDSWTLRLHNLQIKDKGRYQCIIHHKKPTGMINIHQMNSELSVLAGGGGSGGGGSVSLTCLVKGFYPSDIAVEWESNGQPENNYKTTPPVLDSDGSFFLYSKLTVDKSRWQQGNVFSCSVMHEALHNHYTQKSLSLSPGK light: QSALTQPASVSGSPGQSITISCTGTSSDVGGYNYVSWYQQHPGKAPKLMIYDVSNRPSGVSNRFSGSKSGNTASLTISGLQAEDEADYYCSSYTSSSTRVFGTGTKVTVLGQPKANPTVTLFPPSSEELQANKATLVCLISDFYPGAVTVAWKADGSPVKAGVETTKPSKQSNNKYAASSYLSLTPEQWKSHRSYSCQVTHEGSTVEKTVAPTECS | 1.74 nM | 0.000693 s⁻¹ | 397000 M⁻¹ s⁻¹ |  |  |  | 
PDL1-CD86-3A-IgG4 (antibody) chain 1: EVQLLESGGGLVQPGGSLRLSCAASGFTFSSYIMMWVRQAPGKGLEWVSSIYPSGGITFYADTVKGRFTISRDNSKNTLYLQMNSLRAEDTAVYYCARIKLGTVTTVDYWGQGTLVTVSSASTKGPSVFPLAPCSRSTSESTAALGCLVKDYFPEPVTVSWNSGALTSGVHTFPAVLQSSGLYSLSSVVTVPSSSLGTKTYTCNVDHKPSNTKVDKRVESKYGPPCPSCPAPEFLGGPSVFLFPPKPKDTLMISRTPEVTCVVVDVSQEDPEVQFNWYVDGVEVHNAKTKPREEQFNSTYRVVSVLTVLHQDWLNGKEYKCKVSNKGLPSSIEKTISKAKGQPREPQVYTLPPSQEEGGGGSGGGGSAPLKIQAYFNETADLPCQFANSQNLSLSELVVFWQDQENLVLNEVYLGKERFDSVDSKYMGRTSFDSDSWTLRLHNLQIKDKGRYQCIIHHKKPTGMINIHQMNSELSVLAGGGGSGGGGSVSLTCLVKGFYPSDIAVEWESNGQPENNYKTTPPVLDSDGSFFLYSRLTVDKSRWQEGNVFSCSVMHEALHNHYTQKSLSLSLGK chain 2: QSALTQPASVSGSPGQSITISCTGTSSDVGGYNYVSWYQQHPGKAPKLMIYDVSNRPSGVSNRFSGSKSGNTASLTISGLQAEDEADYYCSSYTSSSTRVFGTGTKVTVLGQPKANPTVTLFPPSSEELQANKATLVCLISDFYPGAVTVAWKADGSPVKAGVETTKPSKQSNNKYAASSYLSLTPEQWKSHRSYSCQVTHEGSTVEKTVAPTECS | 1.88 nM | 0.000684 s⁻¹ | 364000 M⁻¹ s⁻¹ |  |  |  | 
PD1-KN035-3A-IgG1 (bispecific antibody, IgG1) heavy: EVQLVESGGGLVQPGGSLRLSCAASGFTFSSYSMSWVRQAPGKRLEWVAHISSGGSSTYYPDTVKGRFTISRDNSKNTLYLQMNSLRAEDTAMYYCTRQFYYGSSFWYFDVWGAGTTVTVSSASTKGPSVFPLAPSSKSTSGGTAALGCLVKDYFPEPVTVSWNSGALTSGVHTFPAVLQSSGLYSLSSVVTVPSSSLGTQTYICNVNHKPSNTKVDKKVEPKSCDKTHTCPPCPAPELLGGPSVFLFPPKPKDTLMISRTPEVTCVVVDVSHEDPEVKFNWYVDGVEVHNAKTKPREEQYNSTYRVVSVLTVLHQDWLNGKEYKCKVSNKALPAPIEKTISKAKGQPREPQVYTLPPSREEGGGGSGGGGSQVQLVESGGGLVQPGGSLRLSCAASGFTFSRRCMAWFRQAPGKERERVAKLLTTSGSTYLADSVKGRFTISRDNSKNTVYLQMNSLRAEDTAVYYCAADSFEDPTCTLVTSSGAFQYWGQGTLVTVSSGGGGSGGGGSVSLTCLVKGFYPSDIAVEWESNGQPENNYKTTPPVLDSDGSFFLYSKLTVDKSRWQQGNVFSCSVMHEALHNHYTQKSLSLSPGK light: DNVLTQSPATLSVSPGERATLSCKASQSVDFDGDSYMNWYQQKPGQPPRLLIYAASNLESGIPARFSGSGSGTDFTLTISSVEPEDFATYYCQQSNEDPPTFGGGTKVEIKRTVAAPSVFIFPPSDEQLKSGTASVVCLLNNFYPREAKVQWKVDNALQSGNSQESVTEQDSKDSTYSLSSTLTLSKADYEKHKVYACEVTHQGLSSPVTKSFNRGEC |  |  |  | 14.1 nM | 0.00687 s⁻¹ | 487000 M⁻¹ s⁻¹ | 
CT4-KN035-3A-knob-IgG1 (bispecific antibody, IgG1 with knobs-in-holes; KN035 on the knob chain only) heavy 1: EVQLVESGGGLVQPGGSLRLSCAASGFTFSSYTMSWVRQAPGKGLEWVATISRGGGYTSYPDSVKGRFTISRDNSKNTLYLQMNSLRAEDTAVYYCAREDYGSSYVHWFAYWGQGTLVTVSAASTKGPSVFPLAPSSKSTSGGTAALGCLVKDYFPEPVTVSWNSGALTSGVHTFPAVLQSSGLYSLSSVVTVPSSSLGTQTYICNVNHKPSNTKVDKKVEPKSCDKTHTCPPCPAPELLGGPSVFLFPPKPKDTLMISRTPEVTCVVVDVSHEDPEVKFNWYVDGVEVHNAKTKPREEQYNSTYRVVSVLTVLHQDWLNGKEYKCKVSNKALPAPIEKTISKAKGQPREPQVCTLPPSREEGGGGSGGGGSQVQLVESGGGLVQPGGSLRLSCAASGFTFSRRCMAWFRQAPGKERERVAKLLTTSGSTYLADSVKGRFTISRDNSKNTVYLQMNSLRAEDTAVYYCAADSFEDPTCTLVTSSGAFQYWGQGTLVTVSSGGGGSGGGGSVSLWCLVKGFYPSDIAVEWESNGQPENNYKTTPPVLDSDGSFFLYSKLTVDKSRWQQGNVFSCSVMHEALHNHYTQKSLSLSPGK heavy 2: not shown light: DIQMTQSPSFLSASVGDRVTITCRAGENIYSYLAWYQQKPGKAPKLLIYNARTLAEGVPSRFSGSGSGTEFTLTISSLQPEDFATYYCQHHYGSPRTFGGGTKLEIKRTVAAPSVFIFPPSDEQLKSGTASVVCLLNNFYPREAKVQWKVDNALQSGNSQESVTEQDSKDSTYSLSSTLTLSKADYEKHKVYACEVTHQGLSSPVTKSFNRGEC |  |  |  | 11.7 nM | 0.00231 s⁻¹ | 197000 M⁻¹ s⁻¹ | 
CT4-KN035-3A-hole-IgG1 (bispecific antibody, IgG1 with knobs-in-holes; KN035 on the hole chain only; also called CT4-KN035-3A-kole) heavy 1: EVQLVESGGGLVQPGGSLRLSCAASGFTFSSYTMSWVRQAPGKGLEWVATISRGGGYTSYPDSVKGRFTISRDNSKNTLYLQMNSLRAEDTAVYYCAREDYGSSYVHWFAYWGQGTLVTVSAASTKGPSVFPLAPSSKSTSGGTAALGCLVKDYFPEPVTVSWNSGALTSGVHTFPAVLQSSGLYSLSSVVTVPSSSLGTQTYICNVNHKPSNTKVDKKVEPKSCDKTHTCPPCPAPELLGGPSVFLFPPKPKDTLMISRTPEVTCVVVDVSHEDPEVKFNWYVDGVEVHNAKTKPREEQYNSTYRVVSVLTVLHQDWLNGKEYKCKVSNKALPAPIEKTISKAKGQPREPQVYTLPPSRCEGGGGSGGGGSQVQLVESGGGLVQPGGSLRLSCAASGFTFSRRCMAWFRQAPGKERERVAKLLTTSGSTYLADSVKGRFTISRDNSKNTVYLQMNSLRAEDTAVYYCAADSFEDPTCTLVTSSGAFQYWGQGTLVTVSSGGGGSGGGGSVSLSCAVKGFYPSDIAVEWESNGQPENNYKTTPPVLDSDGSFFLVSKLTVDKSRWQQGNVFSCSVMHEALHNHYTQKSLSLSPGK heavy 2: not shown light: DIQMTQSPSFLSASVGDRVTITCRAGENIYSYLAWYQQKPGKAPKLLIYNARTLAEGVPSRFSGSGSGTEFTLTISSLQPEDFATYYCQHHYGSPRTFGGGTKLEIKRTVAAPSVFIFPPSDEQLKSGTASVVCLLNNFYPREAKVQWKVDNALQSGNSQESVTEQDSKDSTYSLSSTLTLSKADYEKHKVYACEVTHQGLSSPVTKSFNRGEC |  |  |  | 20.4 nM | 0.0019 s⁻¹ | 92700 M⁻¹ s⁻¹ | 
KN035-IgG1 (D265A) (Fc fusion, not shown: a dimerising Fc or GST, Control; with D265A mutation in heavy chain constant domain; also called KN035-PDL1) VHH: QVQLVESGGGLVQPGGSLRLSCAASGFTFSRRCMAWFRQAPGKERERVAKLLTTSGSTYLADSVKGRFTISRDNSKNTVYLQMNSLRAEDTAVYYCAADSFEDPTCTLVTSSGAFQYWGQGTLVTVSS |  |  |  | 11.5 nM | 0.0204 s⁻¹ | 1.78e+06 M⁻¹ s⁻¹ | 
3F2-hIL7-3A (antibody, IgG1) heavy: QVQLQESGPGLVKPSETLSLTCTVSGYSITSGYNWHWIRQFPGNGLEWMGYIHHSSITNYNPSLKSRITISRDTSKNQFSLKLSSVTAADTATYYCAREGYDYDWFAYWGQGTLVTVSSASTKGPSVFPLAPSSKSTSGGTAALGCLVKDYFPEPVTVSWNSGALTSGVHTFPAVLQSSGLYSLSSVVTVPSSSLGTQTYICNVNHKPSNTKVDKKVEPKSCDKTHTCPPCPAPELLGGPSVFLFPPKPKDTLMISRTPEVTCVVVDVSHEDPEVKFNWYVDGVEVHNAKTKPREEQYNSTYRVVSVLTVLHQDWLNGKEYKCKVSNKALPAPIEKTISKAKGQPREPQVYTLPPSRDEGGGGSGGGGSDCDIEGKDGKQYESVLMVSIDQLLDSMKEIGSNCLNNEFNFFKRHICDANKEGMFLFRAARKLRQFLKMNSTGDFDLHLLKVSEGTTILLNCTGQVKGRKPAALGEAQPTKSLEENKSLKEQKKLNDLCFLKRLLQEIKTCWNKILMGTKEHGGGGSGGGGSVSLTCLVKGFYPSDIAVEWESNGQPENNYKTTPPVLDSDGSFFLYSKLTVDKSRWQQGNVFSCSVMHEALHNHYTQKSLSLSPGK light: DIVLTQSPDFQSVTPKEKVTITCRASQSISNNLHWYQQKPDESPKLLIKYASQSISGIPSRFSGSGSGTDFTLTINSVEAEDFAMYFCQQSKSWPFTFGQGTRLEIKRTVAAPSVFIFPPSDEQLKSGTASVVCLLNNFYPREAKVQWKVDNALQSGNSQESVTEQDSKDSTYSLSSTLTLSKADYEKHKVYACEVTHQGLSSPVTKSFNRGEC |  |  |  |  |  |  | Kd [2]: 0.493 nM; koff [2]: 0.000879 s⁻¹; kon [2]: 1.78e+06 M⁻¹ s⁻¹
